Publication PMC4006750, “GOLPH3 Is Essential for Contractile Ring Formation and Rab11 Localization to the Cleavage Site during Cytokinesis in Drosophila melanogaster” (PLoS Genetics, 2014)
Where “and” joins values, the source holds several entries; their conditions need not be identical. Equal entries are not always repeated.

Molecular target: T1, Drosophila GOLPH3, GST removed (ligand of the SPR experiment) (Drosophila melanogaster, UniProt Q9VQ93 1-294)
T1 construct: Drosophila melanogaster GOLPH3 (CG7085, sauron), polypeptide of 293 amino acids, full-length cDNA in pGEX-6p-2; A few vector residues probably remain at the N-terminus after PreScission cleavage; also called dGOLPH3; source: E. coli BL21-CodonPlus [DE3], purified as GST fusion, GST cleaved off with PreScission Protease; not shown: GST, N-terminal, cleaved
Experiment: SPR; BIACORE X, GOLPH3 immobilised on CM5 chip by amine coupling (about 1200 RU); Rab11 analyte 50 nM to 10.0 µM in 10 mM Hepes pH 7.4, 150 mM NaCl, 0.005% surfactant P20, 30 µl/min
Conditions: both partners purified

T1 sequence (Q9VQ93 whole entry, the tested form may be a part): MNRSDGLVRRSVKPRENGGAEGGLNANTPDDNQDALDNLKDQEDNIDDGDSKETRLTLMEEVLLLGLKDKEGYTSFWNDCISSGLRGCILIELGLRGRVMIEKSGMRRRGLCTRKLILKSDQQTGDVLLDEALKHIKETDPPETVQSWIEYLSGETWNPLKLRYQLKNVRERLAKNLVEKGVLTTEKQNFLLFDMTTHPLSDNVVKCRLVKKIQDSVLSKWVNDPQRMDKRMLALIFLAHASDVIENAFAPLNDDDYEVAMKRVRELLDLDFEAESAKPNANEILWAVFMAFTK

B1: Drosophila Rab11, GST removed (analyte of the SPR experiment) (natural protein, UniProt O18335 1-214, looked up)
chain: MGAREDEYDYLFKVVLIGDSGVGKSNLLSRFTRNEFNLESKSTIGVEFATRSIEVDGKTIKAQIWDTAGQERYRAITSAYYRGAVGALLVYDIAKHLTYENVERWLRELRDHADQNIVIMLVGNKSDLRHLRSVPTDEAKLFAERNGLSFIETSALDSTNVETAFQNILTEIYRIVSQKQIRDPPEGDVIRPSNVEPIDVKPTVTADVRKQCCQ
notes: Drosophila Rab11, full-length, made as GST fusion; source: E. coli BL21-CodonPlus [DE3], purified as GST fusion, GST cleaved off with PreScission Protease
In the case of B1, the Kd is reported as 180 nM and the koff is reported as ~0.0002 s⁻¹ and ~0.0001 s⁻¹.
